In the DeepSol protein solubility set:

Assay: soluble on expression in E. coli; label from the status in PepcDB or PDB records

Row | Sequence | soluble on expression in E. coli
1 | MSLDSLDKSKLERMLDIKEAHREGHLTLEEAKERMKKEVGSISPEEFAAAEQLFKERDQDECQNEDVRTMLQLFEGLINPIRPDLPFGHPIDAYLRENDKAKELLDQADALLERTFIPNPWIELMETLMGYKLHFARKQNQLYSTLEQKGFDRPSTTMWTYDDHIRDEMNKAMSLLREKDYDSFPAAYKEMAIVLRDLMEKEELILYPTSLKLISDKEFEEMKHGDREIGFFLIDMPELDAPAKQSKEAHGQSFMAELGALLAKHGMGTGGQDDKAILDVAEGKLTLEQINLLFRHLPVDISFVDENELVCFYTDTKHRVFPRSKGVIGREVRNCHPPKSVHIVEEIIDKFRRGEQDRAEFWINKPGVFIYIVYVAIRDADGRFRGVMEMMQDCTRIRSLEGSRTLLTEGHHHHHH | soluble
2 | MSLDTDRILRAFASLVQATLRTNYFVTRQGSARCRDVLALKLNAQLIDELPLPRPRYEIFVYSPRVEGVHLRFGPVARGGLRWSDRRDDFRTEILGLVKAQAVKNAVIVPVGAKGGFVVKRPPLPTGDPAADRDATRAEGVACYQLFISGLLDVTDNVDHATASVNPPPEVVRRDGDDAYLVVAADKGTATFSDIANDVAKSYGFWLGDAFASGGSVGYDHKAMGITARGAWEAVKRHFREIGIDTQTQDFTVVGIGDMSGDVFGNGMLLSKHIRLIAAFDHRHIFLDPNPDAAVSWAERRRMFELPRSSWSDYDRSLISEGGGVYSREQKAIPLSAQVRAVLGIDGSVDGGAAEMAPPNLIRAILRAPVDLLFNGGIGTYIKAESESDADVGDRANDPVRVNANQVRAKVIGEGGNLGVTALGRVEFDLSGGRINTDALDNSAGVDCSDHEVNIKILIDSLVSAGTVKADERTQLLESMTDEVAQLVLADNEDQNDLMGTSRANAASLLPVHAMQIKYLVAERGVNRELEALPSEKEIARRSEAGIGLTSPELATLMAHVKLGLKEEVLATELPDQDVFASRLPRYFPTALRERFTPEIRSHQLRREIVTTMLINDLVDTAGITYAFRIAEDVGVTPIDAVRTYVATDAIFGVGHIWRRIRAANLPIALSDRLTLDTREGHHHHHH | not soluble
3 | MSLDTPRIILHNSDTAPLTHWLRAAFPQADFRECNSYEALPALIEGYRPEVVYSVRFAGTPGFPRDALFGPGGPRWIANGGAGTDHYGQWDPGQTTVTNTAGVAAEMMAEYILGGFLHFSLDVPGLQKDKAARVWNARTVRPLAGKTLLIIGLGHTGRAVAARSKAFGMKVLGTRARPKPMENVDEVHAADDLHDLLPHADFIAVSTPLIPATRGLIGAQEIAAMKSGVIFADVSRGGVVDQTALYDALSVGHVAAAALDVFETEPLPEISPLWALENVIISPHCSSVFAEWEEASFELFLQNLGRWMRGEGHHHHHH | not soluble
4 | MSLDVAIGEVLAEVAAQEGDRLALVEVVPNGMDSPVGAASTSRRWTYAQLNDDARRCASWLLTQFKTGDHICVWAPNVPEWIVLQYGAALSGLVLVTANPALKASELEFVLQQSQSVALFHLDAFRGVETGAVARSFASAKLRCISFSGWLAEIRRTEIGALPRIDPGQPAQIQYTSGTTGRPKGALLHHRGLITNASYVAARAGLDHSVLLSPMPLFHTAGSIMSVLGCLNSRSTLVLPLLFDPGTVLDAIAHTRADTLFGVPTMLLAVIDAQLQAPRDLSSLRVAASGGAQVPPELHRRIHDALKLPLLTVFGQTELSPIVSQTCIDDPDEQRIHSVGRPLWNVEVRIVDPNGDRVVVIGVEGEIQVRGYQTMLGYFNAPKETSETITADGWLRTGDLGAMDEAGYLRITGRLKDMIIRGGENIYPAEVEACLLRHPAVADISVFGAPDDKWGEVVAAAVRLVPDVPVTATELSAFCKTEIAPHKAPTVWYACTGFPLTASGKIQKFRLRDAAVEGELQRLSEGHHHHHH | soluble
5 | MSLDVSAYPFFRRDMSWLSFNERVLMEAADRTLPVYDRIKFLSIFSSNLEEFYTVRVAYHQAVLQKRRDRSEAEEDSDADAHILQAIRETVIRQDELYYRIFYDQILPTLEEHGIRLRTHAPTHPDHKAYLRRFFHEEIFPLLYPMLLLPSKVRTFIRSGRVYLAVRLKEKETDEAYSYALLNVPTDGLPRFVELPRLQTDTFYYYSFLEDIIKEHLDVVFPGYEVMDSYSIKVSRDADLLLDAQRPEDLPGEIRKKVKTRKLGAPTRFMYDGRMPDEVLRYICSSCDIDPEEAIRSGNYVNLQDLAMLPNPFAPRLETLTPEPLLSKHLEQAPSLMEGIRRKDYLIHVPYYTYDYVVRLLMEAAISPDVSEIRLTQYRVAENSSIISALEAAAQSGKKVSVFVELKARFDEENNLRLSERMRRSGIRIVYSMPGLKVHAKTALILYHTPAGERPQGIALLSTGNFNETTARIYSDTTLMTANTDIVHDVYRLFRILDGDPEPARFSRLLVARYNMGEAITNLIEREIENVKRGKRGYMLLKMNGLQDKNVITQLYRASEAGVEIDLIVRGICCLVPDMPQSRNIRVTRLVDMYLEHSRIWCFHNGGKEEVFISSADWMKRNLYNRIETACPVLDPTLRREIIDILEIQLRDNIKACRIDSSLNNIYKHNSDEKPVRAQAAIYRYLKGKEETTPAAKEGHHHHHH | soluble
6 | MSLDYGINFWSDNDFIIEDGQVKINYKTKPAIIDIVKKVREEGYRGPLLLRFPHLIKKQVDKIFTHFETSIKQYHYKGQFKAVFPLKVNQFPNFVLPLVELSQNRCYGLEAGSKAELIIAMAYTNKGSPITVNGFKDKEMISLGFIAANMGHEITLTIEGLNELETIIEVAEEMGKPCPNIGLRIRLHSSGIGIWAKSGGINSKFGLTSTELLEGIRLLEKHKLIEKFTMIHFHIGSQISDISPLKKAMREAGNIYAELRKMGAKNLKSVNIGGGLAVEYTQHEGSPNRNYTLDEFAGDVVFSLKEIAKNKKEPEPDIYIESGRYIAASHALLVAPVLELFSQEYDEKALHLKDKNPQLIEELNELYNTVNEKYAIEYLHDSLDHMESLLTLFDLGYIDLQDRSNTEILVHLIIKKVIKILKHKNHSDIIRIQEQVQERYLLNCSFFQSLPDYWGLEQSFPVMPLDRLNKRPTRSASLWDITCDSDGEIGFDLNKPLFLHDVDVTTEEYFLGFFLVGAYQEVLGMRHNLFTHPTELSVEFEEDGTHSVTNLLEAQTILDVLDDLDYDEGHHHHHH | not soluble
7 | MSLEALSSYQQRNNQQLDQWLNRIPFQTLPLIEAMRYGLLLGGKRARPYLVYITGQMLGCELSDLDTPASAVECIHAYSLIHDDLPAMDDDELRRGKPTCHIQFDEATAILTGDALQTLAFTILAEGDLSAAGETQRVAMLQALAEASGAQGMCLGQALDLAAENRLISLEELETIHRNKTGALMRCAIRLGALAAGEKGRAMLPHLDRYAEAVGLAFQVQDDILDIISDTETLGKPQGSDQELNKSTYPALLGLEGAQQKAHTLLQEALLALEAIPYNTEHLEEFARYVVERKNEGHHHHHH | soluble
8 | MSLEEDIQKQIIAAKEEAHDETIWGKPANDIITGIGNNSGVRPQRAIWEMVQNARDVSLNGKADIVFERQHDCFIFQHNGISFTNNTLEALILQTSSKVRNDSVQVGQYGTGFLTTHKLGLKFTLSSSVQLLENEQLFHHFSNFLIDRSSTDKKQMRDSLKKQIKITEEWARNPTIVSGPSSLTTFRYIQEHEVEKMNTKEAFKASSALAPYVIALNPCVNSISFVDNVEDCKELYIRKSTEIINTCDFYNVVKVTIDKCETESCDFTVLMLQSKETVEESGEPKVIVILPIKELESKSVAFALSKDVPNLFIYLPLLGTEQWGLNFIFHSPLFTCDKDSRDSLRFVGNGQNNDVDAERNKGIIQLADVIVSHYITENLSNIQDCMYLAKVAFNLHNSDEALANYYKSLQSSWVKKYESFPFVITKNGNIITRQAKVFDKELFDACLENKDLLTAVYNVTVQIYGTDYLPLETNMLFWSETLLQWYEAESFNPHLIHLSDIVEYIDKNNITTIGEENLWCIDNYIANSKQIGLFTKYKLLPTKNGELRVREDLLNPIIHDESLLKILDSLLPNDVASFIHTRFVLFEDVKIEEYDHNKVKESMRLLVSELSDLQKGHEIYRTNILAGLDVDSNKYEQNKLSDNHINALMGFYAYIVNIGGEAFQYKMIHLLADFYNIDLKSGEAYIKEIYDWRTVAPLLIKDALFRFTLMDSEGHHHHHH | not soluble
9 | MSLEGNLEELVYFYPPSTTPPAVGKYTQLISDLLQSVSIVDALPRGAAQAGILCQDTKEVLESENTVLEIAIPRQDNLVIVGDIHGQFADMLSNVLSIQLNLNNTKATDGRGSPSTEIYKFLFLGDYVDRGPQSLEVITLLFALKVEYPEHIFLLRGNHEEAQTSRLYGFFQECKSKLEGTGDRGPASVDITSSTWLQYNTVFCWLPLAAVVACPSGMFFCTHGGLSPHTLSVPLLRSLRRNEYGMVDDFEDTFYTPTSRGGDDMLEGPGAKARLVIDGLLWSDPEDQVSGCQMNNRGCGFIFGPDVTRSFLDRNYSYGFPPSKRQLIGEMKPGMQFILRGHQCAREGYMWCHGGLVLTLFSAPNYCGMHGNKGAVALLRGQVQAGKDRVELEFNVYDTVVRGGSDNLVACLSPFAFAHYFSGDSEGHHHHHH | soluble
10 | MSLEHWNKTFCLEVKGDYACFTRPEMKVERVSYDVITPSAARGIFEAIFWKPAIRWRIRKIEVLNPIKWISVRRNEVGQTASERSDGIFIETARQQRAGLFLRDVAYRLHAELEFVPPSERPDAKRPVPESLQDGRETSELRKDENPGKYYAIFERRARKGQCFNQPYLGCREFSCEFRLVDDLANEPPPISETRNLGFMLYDLDFQKNLKEPPPAFFPACLEKGVIKVPDWESEEVRKEGHHHHHH | soluble
11 | MSLEIPKDFFVKDGEPNVKIVVGSEGAAMDVVSAADIAAAIGSLLYTEKEVKVSDVSVVVRKDITYDPDDIPVFNNFYPNKNQVFIVGQDSLKDVEAWWNGSAFSANYTASVWNGGTYSGTYSLELENVANYGKYDLTGELTLKGITLEEIANNEVNFKDIEDFKDMTVKINSAVLNITLAVYNWTKTVKAKDPITGVTTTKVKWTLSNVQPGAGYSISDTISKGVGEGVTLKVFDKEFPIMFVGKAISKNAIVDAADSFVYGTYHGTDFYDQGQEVEFDGYKVEILDIDIQRNEGHHHHHH | not soluble
12 | MSLEKKDTNSLKLLLIGNTGIGEYKSRAERKGLWYKLKRFLWTNEFDQTVSALAKWHAEEKADAVLGLGDFLGIPGPLSARDERFTKRWYDIFVKDAKLDIPWLMTLGEEEALVNPSASVRHHYTGEHPNWYMPNDAYTATFSFSTSMTMANGTIQHEAFNATVINVNTWNLFVGNPIANNMQSMMDRLMWLSDQLYTAVNQTTNWLIIMGHLPLVSTGPQGEQGRLQYVDDLYKNGQPRGPEAVLIQMLLSHYQVDLYVSAHDHFMEYVALEDLSKNTTTAFITSGAAVRLLDKDVGRGWIGRLRGALYPILCWSGRRILYAFHPGEGHHHHHH | not soluble
13 | MSLEKLLPDPDPTFERPYTLCLSLDDLLIHSEWTREHGWRIAKRPGVDYFIRYLSQYYELVLFTTTPYATGEPVMRKLDPFRLILWPLYREATKFEDGEIVKDLSYLNRDLSKVIIIDTKAKHVRNQPDNAIILDPWKGDKDDKNLVNLIPFLEYIHTMQYSDVRKVIKSFDGKDIPTEGHHHHHH | soluble
14 | MSLELEQLTSNSIRPYIPKGTHPVETGKYLISTNEIDRMYQTVLQWIGNRIPGAIIYGRPRLGKTRAITYLMNCLPQDFGNNMPIYHVRCRTYKRPNENSFFEDLLLAVGHSIAIQGKANVKRNRLLKFLVERSDFSGTNKVVFFIDDAQRLVEIHYDWLMDLFNELEQYGITLTTILVGQKELVHQRSAFISGEKFQIVGRFMSQEYQFKGIKTPRDLKICLTGYDEYCEYPINSNWSFTKYFFADSFIRGLRLQNSAEELFQVFVDLRREHGLSQKVEIPMQHITLTVEYALKNFGIDNLDLTTIEKTHWEESIKNSGYIQSELYQTTEGHHHHHH | not soluble
15 | MSLENRGILFDKDGTCIRFDTLWQAGLQACFETLSMLAPHHSAEIKKILAIQEQRFLQKHLLDEVLYQELYQELAQFEELVEQGISSRWLEQFFYDYLRKNLKKIEPIGDLKQLFLELKRKNYKIGLATSDTLPATMLIMEYLGLTEMFDFIATGDRYLPKPDADMLQAFCQSCQLKATEVIMVGDSLVDVFMGTCHGKAGIGVLTGNCQSTDFEKFEVAYFRDIHEIPYQELWGNTKKKKIYYVEGHHHHHH | soluble
